This series concerns the molecule itself. Put plainly: crystal structure; wild-type JIP1-SH3 at 20 mg/ml; crystals in 0.1 M HEPES pH 7.5, 1-5% PEG 400, 2-2.5 M ammonium sulfate, 20 °C, hanging drop; molecular replacement with PDB 2FPE chains A-B.

The record followed here is publication PMC8866124, “Visualizing protein breathing motions associated with aromatic ring flipping” (Nature, 2022).

B1: SH3 domain of the JNK-interacting protein 1 (JIP1), wild type (domain or fragment, human)
chain: GHMEQTHRAIFRFVPRHEDELELEVDDPLLVELQAEDYWYEAYNMRTGARGVFPAYYAIEVTK
notes: N-terminal extension left on the protein after cleavage by the TEV protease; Called dimeric in the legends; The wild-type structure was solved by molecular replacement with chains A-B of PDB 2FPE; also called JIP1-SH3; JIP1-SH3(WT); not shown: His6, N-terminal, cleaved
Take B1: the binding result is given as “binds”.
